Data from paper PMC6594998.

Columns and labels:
[1] = molecular target: Nme1Cas9 (purified, full length) (N. meningitidis); experiment: ITC; 100 μM AcrIIC2Nme titrated into 10 μM Nme1Cas9; 20 °C; 300 mM NaCl, 20 mM Tris pH 7.5; One Set of Sites model
[2] = molecular target: Nme1Cas9 (purified, full length) (N. meningitidis)
[3] = molecular target: AcrIIC2Nme (purified, pET28a-Sumo construct) (not stated (suffix Nme; its cognate Cas9 is from N. meningitidis)); experiment: crystal structure; Nme1Cas9 and AcrIIC2Nme mixed 1:10, complex purified by gel filtration; hanging drop, 16 °C; Nme1Cas9 digested during crystallization; 2.6 Å
[4] = molecular target: AcrIIC2Nme (purified, pHAT4 construct with N-terminal 6-His tag) (not stated (suffix Nme; its cognate Cas9 is from N. meningitidis)); experiment: crystal structure; AcrIIC2Nme alone; Se-SAD; 2.5 Å

| Kd [1] [nM] | in vitro DNA cleavage by Nme1Cas9; sgRNA and AcrIIC2Nme added simultaneously; excess of AcrIIC2Nme needed to block cleavage [2] [fold excess] | stoichiometry N [3] | stoichiometry N [4] | Substance |
| --- | --- | --- | --- | --- |
| 200 | > 10 | 2 | – | AcrIIC2Nme (purified, pET28a-Sumo construct) (natural protein) |
| – | – | – | 2 | AcrIIC2Nme (purified, pHAT4 construct with N-terminal 6-His tag) (natural protein) |
